# Molecular target: PD-L1 on CHO-PD-L1 cells (Promega blockade system) (UniProt Q9NZQ7)
# Sequence (Q9NZQ7 19-290 limits assumed): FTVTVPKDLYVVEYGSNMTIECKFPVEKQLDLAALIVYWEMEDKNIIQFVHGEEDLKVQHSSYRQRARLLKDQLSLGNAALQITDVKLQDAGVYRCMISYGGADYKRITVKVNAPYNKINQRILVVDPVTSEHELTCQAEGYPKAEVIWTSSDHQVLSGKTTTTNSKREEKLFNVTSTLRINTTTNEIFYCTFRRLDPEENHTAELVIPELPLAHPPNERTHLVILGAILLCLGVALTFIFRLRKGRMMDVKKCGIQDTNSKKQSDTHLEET
substance,measurement,value
Tecentriq (antibody),"EC50 (read off the curve); luciferase fold induction, Promega CHO-PD-L1 / PD-1 Jurkat assay",0.1 nM

# Reference: patent US20250129167A1
